YFP/CFP emission ratio increase (FRET) on in vitro methylation by G9a + SAM, YFP/CFP emission ratio increase (FRET) on in vitro acetylation by CBP + acetyl-CoA and YFP/CFP emission ratio increase (FRET) on in vitro phosphorylation by Msk-1 data for 3 substances are collected here from US20040265906A1.

Test in all cases: cell-based or functional assay
Test [1] deals with H3 peptide (first 30 amino acids of H3) of the H3 methylation indicator, methylated by G9a.
The target of test [2] is H4 peptide of the H4 acetylation indicator, acetylated by CBP.
The target in test [3] is H3 peptide segment (first 30 amino acids of H3) of the phosphorylation indicator, phosphorylated by Msk-1.

Turning to “chromodomain of HP1 in the H3 methylation indicator”, the YFP/CFP emission ratio increase (FRET) on in vitro methylation by G9a + SAM in test [1] worked out at 20%.
On to “bromodomain of the Drosophila transcription factor TAF250 in the H4 acetylation reporter”, for which, in test [2], the YFP/CFP emission ratio increase (FRET) on in vitro acetylation by CBP + acetyl-CoA turned out to be 11%.
Regarding “14-3-3 domain of the histone 3 phosphorylation indicator”, in test [3], the YFP/CFP emission ratio increase (FRET) on in vitro phosphorylation by Msk-1 amounted to 25%.
